In patent publication US20090149339A1 (published 2009):
Ends that are not written are not given here. * marks the point of attachment. Biotin = O=C1N[C@H]2[C@H](CS[C@H]2CCCCC(=O)*)N1

How the values were obtained:
Test in all cases: A/G assays
[1] = molecular target: T1, GST-TAX40 PDZ domain fusion protein (human tax interaction protein 40 AA35-137; PDZ domain 1 of 1) (human, UniProt P08515 1-218 = GST)
T1 construct: also called TX 40

[2] = molecular target: T2, GST-KIAA0559 PDZ domain fusion protein (KIAA0559 AA766-870; PDZ1 of 1) (UniProt P08515 1-218 = GST)
T2 construct: also called K559

[3] = molecular target: GST-MINT3 PDZ domain fusion protein (human MINT3 AA11-52; PDZ domain 1 of 1) (human, UniProt P08515 1-218 = GST)
[4] = molecular target: T3, GST-CASK PDZ domain fusion protein (CASK AA495-584; PDZ domain 1 of 1) (mouse, UniProt P08515 1-218 = GST)
T3 construct: also called mCASK

[5] = molecular target: T4, GST-TAX2 PDZ domain fusion protein (human tax interaction protein 2 AA54-140; PDZ domain 1 of 1) (human, UniProt P08515 1-218 = GST)
T4 construct: also called TX 2

[6] = molecular target: T5, GST-41.8 kD PDZ domain fusion protein (hypothetical 41.8 kD protein AA4-85; PDZ domain 1 of 1) (UniProt P08515 1-218 = GST)
T5 construct: also called hypoth

[7] = molecular target: T6, GST-KIAA0303 PDZ domain fusion protein (KIAA0303 AA652-742; PDZ domain 1 of 1) (UniProt P08515 1-218 = GST)
T6 construct: also called K303

[8] = molecular target: GST-TIAM1 PDZ domain fusion protein (T-lymphoma invasion and metastasis inducing protein 1 AA1001-1088); PDZ 1 … (UniProt P08515 1-218 = GST)
[9] = molecular target: GST-MPP1 PDZ domain fusion protein (55 Kd erythrocyte membrane protein AA101-186; PDZ domain 1 of 1) (UniProt P08515 1-218 = GST)
[10] = molecular target: GST-PTN-4 PDZ domain fusion protein (protein-tyrosine phosphatase meg1 AA774-862; PDZ domain 1 of 1) (UniProt P08515 1-218 = GST)
[11] = molecular target: T7, GST-TAX43 PDZ domain fusion protein (human tax interaction protein 43 AA15-85; PDZ domain 1 of 1) (human, UniProt P08515 1-218 = GST)
T7 construct: also called TX 43

[12] = molecular target: T8, GST-RGS12 PDZ domain fusion protein (human regulator of G-protein signalling 12 AA35-103; PDZ domain 1 of 1) (human, UniProt P08515 1-218 = GST)
T8 construct: also called RSG12

[13] = molecular target: GST-AF6 PDZ domain fusion protein (af-6 protein AA985-1077; PDZ domain 1 of 1) (UniProt P08515 1-218 = GST)
[14] = molecular target: GST-LIM PDZ domain fusion protein (Human LIM protein AA29-112; PDZ domain 1 of 1) (human, UniProt P08515 1-218 = GST)
[15] = molecular target: GST-prIL16 PDZ domain fusion protein (putative interleukin 16 precursor AA170-383; PDZ domains 1-2 of 2) (UniProt P08515 1-218 = GST)
[16] = molecular target: GST-LIMK2 PDZ domain fusion protein (human LIM domain kinase 2 AA185-275; PDZ domain 1 of 1) (human, UniProt P08515 1-218 = GST)
[17] = molecular target: T9, GST-KIAA0316 PDZ domain fusion protein (KIAA0316 AA197-284; PDZ domain 1 of 1) (UniProt P08515 1-218 = GST)
T9 construct: also called K316

[18] = molecular target: GST-DVL1 PDZ domain fusion protein (human dishevelled segment polarity protein homolog AA248-340); PDZ domain … (human, UniProt P08515 1-218 = GST)
[19] = molecular target: T10, GST-NeDLG PDZ domain fusion protein (presynaptic protein sao102, neuroendocrine-dlg; PDZ domains 1-2 of 3) (UniProt P08515 1-218 = GST)
T10 construct: also called NeDLG1

[20] = molecular target: T11, GST-SYN1a PDZ domain fusion protein (alpha1-syntrophin AA96-189; PDZ domain 1 of 1) (UniProt P08515 1-218 = GST)
T11 construct: also called SYN 1 alpha; SYNTR 1 alpha

[21] = molecular target: GST-PSD95 PDZ domain fusion protein (human post-synaptic density protein 95 AA387-724; PDZ domains 1-3 of 3) (human, UniProt P08515 1-218 = GST)
[22] = molecular target: T12, GST-MPP2 PDZ domain fusion protein (maguk p55 subfamily member 2 (DLG2) AA185-273; PDZ domain 1 of 1) (UniProt P08515 1-218 = GST)
T12 construct: also called MMP2

[23] = molecular target: GST-NOS1 PDZ domain fusion protein (human neuronal nitric oxide synthase; PDZ domain 1 of 1) (human, UniProt P08515 1-218 = GST)
[24] = molecular target: T13, GST-TAX33 PDZ domain fusion protein (tax interaction protein 33 AA73-162; PDZ domain 1 of 1) (UniProt P08515 1-218 = GST)
T13 construct: also called TX33

[25] = molecular target: T14, GST-CBP PDZ domain fusion protein (Cytohesin binding protein HE AA85-175; PDZ domain 1 of 1) (UniProt P08515 1-218 = GST)
T14 construct: also called Prot

Measured: binding result

Sequence of GST-MPP1 PDZ domain fusion protein (55 Kd erythrocyte membrane protein AA101-186; PDZ domain 1 of 1) (P08515 1-218, tags or fused parts left off): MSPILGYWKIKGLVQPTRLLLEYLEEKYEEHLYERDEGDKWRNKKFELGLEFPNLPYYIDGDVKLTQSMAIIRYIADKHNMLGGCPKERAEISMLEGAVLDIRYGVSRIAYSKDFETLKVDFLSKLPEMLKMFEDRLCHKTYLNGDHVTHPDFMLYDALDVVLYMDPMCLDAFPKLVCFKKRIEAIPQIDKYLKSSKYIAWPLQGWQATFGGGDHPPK
T13 sequence (P08515 1-218, tags or fused parts left off): as above
Sequence of GST-LIMK2 PDZ domain fusion protein (human LIM domain kinase 2 AA185-275; PDZ domain 1 of 1) (P08515 1-218, tags or fused parts left off): as above
T8 sequence (P08515 1-218, tags or fused parts left off): as above
Sequence of GST-PSD95 PDZ domain fusion protein (human post-synaptic density protein 95 AA387-724; PDZ domains 1-3 of 3) (P08515 1-218, tags or fused parts left off): as above
Sequence of GST-NOS1 PDZ domain fusion protein (human neuronal nitric oxide synthase; PDZ domain 1 of 1) (P08515 1-218, tags or fused parts left off): as above
T5 sequence (P08515 1-218, tags or fused parts left off): as above
Sequence of GST-PTN-4 PDZ domain fusion protein (protein-tyrosine phosphatase meg1 AA774-862; PDZ domain 1 of 1) (P08515 1-218, tags or fused parts left off): as above
T12 sequence (P08515 1-218, tags or fused parts left off): as above
T6 sequence (P08515 1-218, tags or fused parts left off): as above
T7 sequence (P08515 1-218, tags or fused parts left off): as above
Sequence of GST-AF6 PDZ domain fusion protein (af-6 protein AA985-1077; PDZ domain 1 of 1) (P08515 1-218, tags or fused parts left off): as above
T10 sequence (P08515 1-218, tags or fused parts left off): as above
T4 sequence (P08515 1-218, tags or fused parts left off): as above
T11 sequence (P08515 1-218, tags or fused parts left off): as above
Sequence of GST-prIL16 PDZ domain fusion protein (putative interleukin 16 precursor AA170-383; PDZ domains 1-2 of 2) (P08515 1-218, tags or fused parts left off): as above
T9 sequence (P08515 1-218, tags or fused parts left off): as above
Sequence of GST-TIAM1 PDZ domain fusion protein (T-lymphoma invasion and metastasis inducing protein 1 AA1001-1088); PDZ 1 … (P08515 1-218, tags or fused parts left off): as above
T1 sequence (P08515 1-218, tags or fused parts left off): as above
T2 sequence (P08515 1-218, tags or fused parts left off): as above
Sequence of GST-DVL1 PDZ domain fusion protein (human dishevelled segment polarity protein homolog AA248-340); PDZ domain … (P08515 1-218, tags or fused parts left off): as above

B1: CC CKR-1R C-terminal PL peptide AA41L, biotinylated (peptide)
peptide: Biotin-LERVSSTSPSTGEHELSAGF
no binding: [1] | [2] | [3] | [4] | [5] | [6] | [7] | [8] | [9] | [10] | [11] | [12] | [13] | [14] | [15] | [16] | [17] | [18] | [19] | [20] | [21] | [22] | [23] | [24] | [25]

B2: BLR-1 C-terminal PL peptide AA45L, biotinylated (peptide)
peptide: Biotin-PSWRRSSLSESENATSLTTF
no binding: [1] | [2] | [3] | [4] | [5] | [6] | [7] | [8] | [9] | [10] | [11] | [12] | [13] | [14] | [15] | [16] | [17] | [18] | [19] | [20] | [21] | [22] | [23] | [24] | [25]

B3: CD62E C-terminal PL peptide AA48L, biotinylated (peptide)
peptide: Biotin-SSSQSLESDGSYQKPSYIL
no binding: [1] | [2] | [3] | [4] | [5] | [6] | [7] | [8] | [9] | [10] | [11] | [12] | [13] | [14] | [15] | [16] | [17] | [18] | [19] | [20] | [21] | [22] | [23] | [24] | [25]

B4: FasLigand C-terminal PL peptide AA23L-M, biotinylated (peptide)
peptide: Biotin-SSKSKSSEESQTFFGLYKL
no binding: [1] | [2] | [3] | [4] | [5] | [6] | [7] | [8] | [9] | [10] | [11] | [12] | [13] | [14] | [15] | [16] | [17] | [18] | [19] | [20] | [21] | [22] | [23] | [24] | [25]
